From IntAct's records for PubMed 24698088

B1: Serine protease HTRA2, mitochondrial (Homo sapiens), O43464 (parent)
chain: MAAPRAGRGAGWSLRAWRALGGIRWGRRPRLTPDLRALLTSGTSDPRARVTYGTPSLWARLSVGVTEPRACLTSGTPGPRAQLTAVTPDTRTREASENSGTRSRAWLAVALGAGGAVLLLLWGGGRGPPAVLAAVPSPPPASPRSQYNFIADVVEKTAPAVVYIEILDRHPFLGREVPISNGSGFVVAADGLIVTNAHVVADRRRVRVRLLSGDTYEAVVTAVDPVADIATLRIQTKEPLPTLPLGRSADVRQGEFVVAMGSPFALQNTITSGIVSSAQRPARDLGLPQTNVEYIQTDAAIDFGNSGGPLVNLDGEVIGVNTMKVTAGISFAIPSDRLREFLHRGEKKNSSSGISGSQRRYIGVMMLTLSPSILAELQLREPSFPDVQHGVLIHKVILGSPAHRAGLRPGDVILAIGEQMVQNAEDVYEAVRTQSQLAVQIRRGRETLTLYVTPEVTE
partner: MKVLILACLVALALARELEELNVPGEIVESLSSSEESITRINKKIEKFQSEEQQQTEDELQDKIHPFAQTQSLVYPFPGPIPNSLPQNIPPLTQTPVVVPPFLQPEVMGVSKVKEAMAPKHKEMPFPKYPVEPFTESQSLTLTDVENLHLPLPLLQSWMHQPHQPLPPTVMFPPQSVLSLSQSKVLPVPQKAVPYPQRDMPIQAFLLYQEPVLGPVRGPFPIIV

Variants of: B1
Settings: with casb_bovin CSN2, P02666

Question: MAAPRAGRGAGWSLRAWRALGGIRWGRRPRLTPDLRALLTSGTSDPRARVTYGTPSLWARLSVGVTEPRACLTSGTPGPRAQLTAVTPDTRTREASENSGTRSRAWLAVALGAGGAVLLLLWGGGRGPPAVLAAVPSPPPASPRSQYNFIADVVEKTAPAVVYIEILDRHPFLGREVPISNGSGFVVAADGLIVTNAHVVADRRRVRVRLLSGDTYEAVVTAVDPVADIATLRIQTKEPLPTLPLGRSADVRQGEFVVAMGSPFALQNTITSGIVSSAQRPARDLGLPQTNVEYIQTDAAIDFGNSGGPLVNLDGEVIGVNTMKVTAGISFAIPSDRLREFLHRGEKKNSSSGISGSQRRYIAVMMLTLSPSILAELQLREPSFPDVQHGVLIHKVILGSPAHRAGLRPGDVILAIGEQMVQNAEDVYEAVRTQSQLAVQIRRGRETLTLYVTPEVTE [G363A] was tested. Which “effect of a mutation on the interaction” value did it give?
Answer: decreasing interaction
